The source of these data is article PMC8896805, “Structural insights into ligand recognition, activation, and signaling of the α2A adrenergic receptor” (Science Advances, 2022).

One experiment has as its system α2AAR F^7.39N mutation. Also noted: method as in PMID 31801060. The conditions noted are these: cited from earlier work.
In the next experiment the test system is α2AAR S^5.46A. The note with it: cited from earlier work.
The target of another experiment is hybrid G protein Gαqs (UniProt P50148).
Another experiment concerns the target hybrid G protein Gαqi (UniProt P50148).

For the molecule `NC[C@H](O)c1ccc(O)c(O)c1` [Norepi, norepinephrine], in the experiment on α2AAR F^7.39N mutation, the “activity of Norepi at F^7.39N mutant, in words” value is “completely abolishes the activity”.
Regarding `CNC[C@H](O)c1ccc(O)c(O)c1` [epinephrine], the “potency to inhibit forskolin-stimulated cAMP accumulation at S^5.46A, in words” value in the experiment with α2AAR S^5.46A is recorded as “markedly reduced the potency”.
In the experiment with hybrid G protein Gαqs, “chimeric receptor α2AAR-β2-TM5 (from UniProt P08913 1-232; P07550 221-232; P08913 245-465)” yielded an IP accumulation (IP-One HTRF) in HEK293T cotransfected with receptor and Gαqs; Gs activity, decrease against wild-type α2AAR of 10 fold. This molecule also registered an IP accumulation (IP-One HTRF) in HEK293T cotransfected with receptor and Gαqi; Gi coupling activity, decrease against wild-type α2AAR with hybrid G protein Gαqi of 3 fold.
In turn, “chimeric receptor β2AR-α2A-TM5 (from UniProt P07550 1-220; P08913 233-244; P07550 233-413)” displayed an IP accumulation (IP-One HTRF) in HEK293T cotransfected with receptor and Gαqs; Gs coupling activity, increase against wild-type β2AR with hybrid G protein Gαqs of more than 100 fold. Also, the IP accumulation (IP-One HTRF) in HEK293T cotransfected with receptor and Gαqi; Gi coupling activity, increase against wild-type β2AR with hybrid G protein Gαqi was more than 100 fold.
